According to the supplement of paper PMC10266784:

B1: library; numbered along this chain (parent)
chain: MAAAAAAAAEQQSSNGPVKKSMREKAVERRSVNKEHNSNFKAGYIPIDEDRLHKTGLRGRKGNLAICVIILLFILAVINLIITLVIWAVIRIGPNGCDSMEFHESGLLRFKQVSDMGVIHPLYKSTVGGRRNENLVITGNNQPIVFQQGTTKLSVENNKTSITSDIGMQFFDPRTQNILFSTDYETHEFHLPSGVKSLNVQKASTERITSNATSDLNIKVDGRAIVRGNEGVFIMGKTIEFHMGGNMELKAENSIILNGSVMVSTTRLPSSSSGDQLGSGDWVRYKLCMCADGTLFKVQVTSQNMGCQISDNPCGNTH

Variants of: B1
Assay: SGCB cell-surface expression functional score (HA stain, bin4 vs bin1, normalised to synonymous) (log10 ratio); higher = more cell-surface SGCB (functional)
In short: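 Sorting and sequencing yield the functional score, defined as the log ratio of a variant's highest-bin frequency to its lowest-bin frequency, with the median taken over codons and replicate transductions. The libraries, codon-saturation sets of HA-tagged, YFP-fused human beta-sarcoglycan, went into HEK293 cells stably carrying alpha-, gamma- and delta-sarcoglycan by duplicate lentiviral transduction at MOI <0.1. Cells were stained on ice with Alexa Fluor 647 anti-HA, fixed and split into four 5% intensity bins, and synonymous variants were scaled per section to mean 0, SD 0.5.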

SGCB cell-surface expression functional score (log10), by site and new letter:
D221: W 0.8; K 0.13; P 0.1; F 1; C -0.33; S 0.59; G 0.35; Q 0.74; T 0.96; L 0.62; Y 0.42; A 0.18; M 0.53; H 0.75; N -0.22; R 0.19; I 0.45; V 0.59; E 0.01
V220: W -1.67; D -0.38; L 0.84; S 0.45; A 0.7; Y -0.43; P 0.3; T 0.63; I 0.43; Q -0.31; E -0.86; C 0.09; K -0.09; M 0.77; N 0.09; R -1.12; H 0.43; G 0.34; F -0.09
D215: N 0.41; V -0.56; M -1; R -0.63; T -0.88; Q -1.03; Y -0.46; P -0.55; S -0.25
N229: A 0.8; Y -0.25; E 0.51; T 0.29; K 0.95; M 1.28; L 0.33; I 0.92; H 1.03; R 0.82; C 0.72; G 0.8; W 0; Q 0.93; S 0.94; P 0.68; F 1.19; D 0.08; V 0.87
G228: Q -1.35; L -1.15; T -0.37; F -0.64; I -1.44; M -0.15; D -1.5; C 0.31; Y -2.12; A 0.3; S 0.43; V -1.04; K -1.33; N -0.63; H -1.79; E -0.84; R -0.47; W -1.51; P -1.47
E230: Y 0.86; H 0.9; Q 0.32; W 0.47; L 0.63; M 0.53; T 1.29; K 0.42; V 0.49; N 0.82; S 0.75; D 0.26; P -0.01; R 0.28; F 1.05; G 0.43; C 1.05; I 0.14; A 0.38
K219: S 0.32; E -0.03; Q 0.3; N -0.17; A 0.76; M 0.67; R 0.05; L 0.3; T 0.6; Y -0.13; D 0.29; P -0.21; V -0.18; W -0.31; H 0.53; F 0.64; G -0.33; I 0.23; C 0.59
L216: M 0.99; N -1.72; C -2.34; S -1.57; F -0.42; G -1.5; H -2.1; A -1.97; E -1.92; Q -0.15; V -2.64; T -1.02; P -1.25; K -0.59; W -0.99; R -1.93; I -0.71; Y -1.59; D -2.69
V232: G -0.27; D -1.72; F 0.02; A -0.53; M 0.68; I 0.47; W -1.85; K -1.43; N -1.99; T 0; R -1.12; Q -1.69; E -1.63; H 0.69; C 0.7; S -0.67; P -0.64; Y -1.09; L 0.35
V226: T 0.44; H -1.36; W -1.37; P -0.81; M 0.21; E 0.47; D -1.82; Q -0.68; F 0.29; G -0.26; R -1.54; A 0.3; S 0.01; Y -0.87; N -0.64; C 0.33; L 0.56; K -1.06; I 0.04
I225: R 0.53; E 1.24; A 0.41; F 0.71; D 0.7; P -1.25; C 0.31; N 0.09; M 0.37; Q 0.49; Y 1.24; G 0.01; T 0.51; V 0.48; H 0.53; S 0.63; W 0.02; K 0.58; L 0.83
F233: C -0.13; A 0.97
R223: E 0.43; V -0.13; A 0.72; S 0.18; D 0.48; L 0.34; Y 0.77; T 0.4; W 0; G 0.12; N 0.66; P 0.58; K 0.86; Q 0.48; H 0.2; M 0.82; F -0.62; I 0.02; C 0.4
G231: A -0.01; P -1.37; S -0.88; T -0.29; Y 0.68; Q -0.92; C -0.5; N -0.19; W -1.9; M -1.23; K -1.12; H -0.09; L -0.37; E 0.17; F -0.12; D -0.08; V -1.02; R 0.27; I -1.29
R227: F -0.49; L 0.68; E 1.04; Y 0.15; D 0.42; T 0.88; P -1.23; G 0.48; V 0.81; W 0.59; K 1.05; I -0.01; Q 0.55; H 0.55; N -0.13; A 0.72; M 1.08; S 0.71; C 0.03
N217: W -1.28; G 0.5; A 0.9; M 0.27; L 0.37; C -0.04; E 0.9; Q 0.77; F 1.13; H 0; R 0.7; T 0.16; Y 0.59; S 0.54; P -1.08; K 0.3; I 0.1; V 0.65; D 0.2
I218: Y -1.39; D -1.45; M 0.26; E -1.24; L 0.56; Q -2.02; G -1.15; F 0.87; C -0.48; T -0.49; A -0.08; S -1.26; N -1.03; V 0.46; K -1.78; W -0.149; H -2.33; R -1.49; P -0.63
A224: S 0.3; W -1.5; K -2.05; T 0.39; H -0.71; C 0.31; Q -0.44; E -1.01; P -1.81; G -0.16; Y -0.45; L 1.04; R -1.54; V 0.53; F 0.35; I 1; N -0.26; D -0.97; M 0.59
G222: A 0.63; Q 0.85; R -0.06; T 0.6; W 0.49; D -0.04; L 0.26; K 0.81; N 1.22; C 0.58; H 1.21; M 0.55; F 0.36; Y 0.21; E 0.65; V -0.07; I -0.41; P -1.42; S 0.06
